Experimental data reported in patent publication US20060067886A1, “Gastrin receptor-avid peptide conjugates” (priority 1997, published 2006).
Values joined by “and” are separate entries in the source; they are usually repeats but may differ in a detail not shown here. Equal values may be shown once.

Columns and labels:
[1] = system: PC-3 human tumor xenografts; test: Single dose radiotherapy in PC-3 tumor bearing SCID mice; type: in vivo; conditions: up to 20 mCi/kg single dose
Description: In vivo pre-clinical evaluation of single dose radiotherapy in human tumor bearing SCID mice. […] The xenograft model was produced by bilateral flank inoculation of 5×10^6 PC-3 cells per site. […] Baseline weights, hematology profiles, and tumor measurements were obtained immediately prior to therapy administration. Four groups of animals were utilized; a saline placebo, a 5 mCi/kg single dose, a 10 mCi/kg single dose, and a 20 mCi/kg single dose. Tumor measurements and weights were obtained twice weekly throughout the 14 weeks post injection.

in vivo = conditions: SCID, mouse, in vivo, iv, 4 uCi, total radioactivity, Avg % ID, Muscle
Method: (§1) In vivo pharmacokinetic studies in human tumor bearing SCID mice. […] The xenograft models were produced by bilateral flank inoculation of 5×10^6 cells (PC-3 or MDA-MB-231 cells) per site. Four to six weeks post inoculation, palpable tumors were observed. At this point, the mice were injected with 4 μCi of the complex in […] of isotonic saline via the tail vein. The mice were euthanized and tissues and organs were excised from the animals at selected times post-injection (p.i.), including 15 minutes, 30 minutes, 1 hour, 4 hours, 24 hours, 48 hours, and 72 hours p.i. Subsequently, the tissues and organs were weighed and counted in a NaI well counter and the percent injected dose (% ID) and % ID/g of each organ or tissue calculated.
(§2) The mice were injected with 4 μCi of the complex in 100 μL of isotonic saline via the tail vein. The mice were euthanized by cervical dislocation. Tissues and organs were excised from the animals following at 1 hour, 4 hour, and 24 hours post-injection (p.i.). Subsequently, the tissues and organs were weighed and counted in a NaI well counter and the percent injected dose (% ID) and % ID/g of each organ or tissue calculated.

[2] = Stability of 177Lu conjugate (RCP, HPLC recovery); type: physicochemical; conditions: wide range of pH values, 24 hours
Method: Under identical chromatographic conditions, DOTA-8-Aoc-BBN[7-14]NH2 has a retention time of 20.5 minutes, allowing for peak purification of the radiolabeled conjugate.
To 50 μl (3.4×10^−8 mols) of DOTA-8-Aoc-BBN[7-14]NH2 in 50 μL of 0.2M Ammonium Acetate was added 150 μL of 0.4M Ammonium Acetate. To this solution was added 50 μL of 177LuCl3 (2 mCi in 0.05N HCl, Missouri University Research Reactor). The solution was allowed to incubate at […] for 1 hour, after which […] of 0.002M EDTA was added in order to scavenge uncomplexed Lutetium. Quality control of the final product was determined by reversed-phase HPLC. Peak purification of the labeled species was performed by collecting the sample from the HPLC eluant, into a solution of 1 mg/mL bovine serum albumin/0.1M Na2HPO4. All further analyses were carried out using the HPLC-purified products.
HPLC analysis of each of the new compounds was performed using an analytical C-18 reversed phase column (Phenomenex, 250×4.6 mm, 5 μm). The mobile phase consisted of a linear gradient system, with solvent A corresponding to 100% water with 0.1% trifluoroacetic acid and solvent B corresponding to 100% acetonitrile with 0.1% trifluoroacetic acid. […]

[3] = Biodistribution of radiometal-DOTA-BBN conjugates in CF1 normal mice; conditions: 1 hour post-injection
[4] = system: PC-3 human tumor xenografts; test: in vivo
Method: as §1, §2

CSCC[C@H](NC(=O)[C@H](CC(C)C)NC(=O)[C@H](Cc1cnc[nH]1)NC(=O)CNC(=O)[C@@H](NC(=O)[C@H](C)NC(=O)[C@H](Cc1c[nH]c2ccccc12)NC(=O)[C@H](CCC(N)=O)NC(=O)CCCCCCCNC(=O)CN1CCN(CC(=O)O)CCN(CC(=O)O)CCN(CC(=O)O)CC1)C(C)C)C(N)=O [90Y-DOTA-8-Aoc-BBN[7-14]NH2, metal not drawn]
tolerability of radiation doses [1]: well tolerated
tissue uptake dose at 4 h (in vivo; 4 hrs): 0.01 ± 0.01 %ID
tissue uptake dose at 48 h (in vivo; 48 hrs): 0.01 ± 0.02 %ID
tissue uptake dose at 72 h (in vivo; 72 hrs): 0.01 ± 0.02 %ID

CSCC[C@H](NC(=O)[C@H](CC(C)C)NC(=O)[C@H](Cc1cnc[nH]1)NC(=O)CNC(=O)[C@@H](NC(=O)[C@H](C)NC(=O)[C@H](Cc1c[nH]c2ccccc12)NC(=O)[C@H](CCC(N)=O)NC(=O)CCCCCCCNC(=O)CN1CCN(CC(=O)O)CCN(CC(=O)O)CCN(CC(=O)O)CC1)C(C)C)C(N)=O [177Lu-DOTA-8-Aoc-BBN[7-14]NH2] [metal not drawn]
stability of the conjugate (RCP) [2]: stability of the conjugate over a wide range of pH values over a time course of 24 hours
Avg % ID, Blood [3]: 0.20 ± 0.15 % ID
Avg % ID, Carcass [3]: 4.95 ± 1.41 % ID
Avg % ID, Heart [3]: 0.02 ± 0.04 % ID
Avg % ID, Kidney [3]: 1.62 ± 0.14 % ID
Avg % ID, L. Intestine [3]: 4.63 ± 0.57 % ID
Avg % ID, Liver [3]: 0.31 ± 0.05 % ID
Avg % ID, Muscle [3]: 0.02 ± 0.05 % ID
Avg % ID, Pancreas [3]: 7.01 ± 1.42 % ID
Avg % ID, S. Intestine [3]: 9.55 ± 2.37 % ID
Avg % ID, Spleen [3]: 0.16 ± 0.05 % ID
Avg % ID, Stomach [3]: 0.51 ± 0.15 % ID
Avg % ID/gm, Blood [3]: 0.14 ± 0.10 % ID/gm
Avg % ID/gm, Heart [3]: 0.19 ± 0.36 % ID/gm
Avg % ID/gm, Kidney [3]: 4.97 ± 0.71 % ID/gm
Avg % ID/gm, L. Intestine [3]: 6.17 ± 0.79 % ID/gm
Avg % ID/gm, Liver [3]: 0.23 ± 0.05 % ID/gm
Avg % ID/gm, Lung [3]: 0.20 ± 0.21 % ID/gm
Avg % ID/gm, Muscle [3]: 0.17 ± 0.39 % ID/gm
Avg % ID/gm, Pancreas [3]: 30.83 ± 1.89 % ID/gm
Avg % ID/gm, S. Intestine [3]: 6.47 ± 1.24 % ID/gm
Avg % ID/gm, Spleen [3]: 1.23 ± 0.59 % ID/gm
Avg % ID/gm, Stomach [3]: 1.41 ± 0.44 % ID/gm
Avg % ID, Blood ([4]; 1 hr): 0.62±0.44 % ID
Avg % ID, Carcass ([4]; 1 hr): 6.18 ± 1.01 % ID
Avg % ID, L. Intestine ([4]; 1 hr): 3.64 ± 0.72 % ID
Avg % ID, Muscle ([4]; 1 hr): 0.01 + 0.02 % ID
Avg % ID, Pancreas ([4]; 1 hr): 9.70 ± 1.12 % ID
Avg % ID, S. Intestine ([4]; 1 hr): 8.20 ± 1.72 % ID
Avg % ID, Stomach ([4]; 1 hr): 0.61 ± 0.09 % ID
Avg % ID, Tumor ([4]; 1 hr): 1.15 ± 0.72 % ID
Avg % ID, Urine ([4]; 1 hr): 67.41±2.45 % ID
Avg % ID/gm, Heart ([4]; 1 hr): 0.15 ± 0.22 % ID/gm
Avg % ID/gm, Kidney ([4]; 1 hr): 4.70 ± 0.95 % ID/gm
Avg % ID/gm, L. Intestine ([4]; 1 hr): 3.29 ± 0.61 % ID/gm
Avg % ID/gm, Liver ([4]; 1 hr): 0.30 ± 0.05 % ID/gm
Avg % ID/gm, Lung ([4]; 1 hr): 0.18 ± 0.09 % ID/gm
Avg % ID/gm, Muscle ([4]; 1 hr): 0.11 ± 0.13 % ID/gm
Avg % ID/gm, Pancreas ([4]; 1 hr): 38.53 ± 3.61 % ID/gm
Avg % ID/gm, S. Intestine ([4]; 1 hr): 5.60 ± 0.46 % ID/gm
Avg % ID/gm, Spleen ([4]; 1 hr): 0.33 ± 0.51 % ID/gm
Avg % ID/gm, Stomach ([4]; 1 hr): 1.38 ± 0.52 % ID/gm
Avg % ID/gm, Tumor ([4]; 1 hr): 4.22±1.09 % ID/gm
Avg % ID, Blood ([4]; 4 hrs): 0.12 ± 0.11 % ID
Avg % ID, Carcass ([4]; 4 hrs): 2.52 ± 1.18 % ID
Avg % ID, Heart ([4]; 4 hrs): 0.01 + 0.02 % ID
Avg % ID, Kidney ([4]; 4 hrs): 0.61 ± 0.08 % ID
Avg % ID, L. Intestine ([4]; 4 hrs): 7.28 ± 4.23 % ID
Avg % ID, Liver ([4]; 4 hrs): 0.15 ± 0.03 % ID
Avg % ID, Lung ([4]; 4 hrs): 0.05 + 0.09 % ID
Avg % ID, Muscle ([4]; 4 hrs): 0.02 + 0.03 % ID
Avg % ID, Pancreas ([4]; 4 hrs): 5.23 ± 1.68 % ID
Avg % ID, S. Intestine ([4]; 4 hrs): 2.51 ± 0.75 % ID
Avg % ID, Spleen ([4]; 4 hrs): 0.05 ± 0.02 % ID
Avg % ID, Stomach ([4]; 4 hrs): 0.22 ± 0.06 % ID
Avg % ID, Tumor ([4]; 4 hrs): 0.78 ± 0.27 % ID
Avg % ID, Urine ([4]; 4 hrs): 79.76 ± 6.48 % ID
Avg % ID/gm, Blood ([4]; 4 hrs): 0.08 ± 0.07 % ID/gm
Avg % ID/gm, Heart ([4]; 4 hrs): 0.07 ± 0.13 % ID/gm
Avg % ID/gm, Kidney ([4]; 4 hrs): 2.18 ± 0.31 % ID/gm
Avg % ID/gm, L. Intestine ([4]; 4 hrs): 7.29 ± 3.73 % ID/gm
Avg % ID/gm, Liver ([4]; 4 hrs): 0.13 ± 0.02 % ID/gm
Avg % ID/gm, Lung ([4]; 4 hrs): 0.11 ± 0.15 % ID/gm
Avg % ID/gm, Muscle ([4]; 4 hrs): 0.15 ± 0.21 % ID/gm
Avg % ID/gm, Pancreas ([4]; 4 hrs): 22.18 ± 4.66 % ID/gm
Avg % ID/gm, S. Intestine ([4]; 4 hrs): 1.93 ± 0.96 % ID/gm
Avg % ID/gm, Spleen ([4]; 4 hrs): 0.60 ± 0.36 % ID/gm
Avg % ID/gm, Stomach ([4]; 4 hrs): 0.34 ± 0.34 % ID/gm
Avg % ID/gm, Tumor ([4]; 4 hrs): 3.03±0.91 % ID/gm
Avg % ID, Blood ([4]; 24 hrs): 0.01 + 0.02 % ID
Avg % ID, Carcass ([4]; 24 hrs): 2.08 + 3.14 % ID
Avg % ID, Kidney ([4]; 24 hrs): 0.17 ± 0.06 % ID
Avg % ID, L. Intestine ([4]; 24 hrs): 1.75 ± 0.23 % ID
Avg % ID, Muscle ([4]; 24 hrs): 0.02 + 0.03 % ID
Avg % ID, Pancreas ([4]; 24 hrs): 1.31 ± 0.45 % ID
Avg % ID, S. Intestine ([4]; 24 hrs): 0.67 ± 0.12 % ID
Avg % ID, Spleen ([4]; 24 hrs): 0.01 + 0.01 % ID
Avg % ID, Stomach ([4]; 24 hrs): 0.09 ± 0.06 % ID
Avg % ID, Tumor ([4]; 24 hrs): 0.29 ± 0.18 % ID
Avg % ID, Urine ([4]; 24 hrs): 85.9±1.4 % ID and 85.85 ± 1.39 % ID
Avg % ID/gm, Blood ([4]; 24 hrs): 0.01 ± 0.01 % ID/gm
Avg % ID/gm, Heart ([4]; 24 hrs): 0.06 ± 0.09 % ID/gm
Avg % ID/gm, Kidney ([4]; 24 hrs): 0.60 ± 0.20 % ID/gm
Avg % ID/gm, L. Intestine ([4]; 24 hrs): 1.90 ± 0.53 % ID/gm
Avg % ID/gm, Lung ([4]; 24 hrs): 0.14 ± 0.26 % ID/gm
Avg % ID/gm, Muscle ([4]; 24 hrs): 0.10 ± 0.17 % ID/gm
Avg % ID/gm, Pancreas ([4]; 24 hrs): 4.97 ± 2.28 % ID/gm
Avg % ID/gm, S. Intestine ([4]; 24 hrs): 0.48 ± 0.14 % ID/gm
Avg % ID/gm, Spleen ([4]; 24 hrs): 0.08 ± 0.10 % ID/gm
Avg % ID/gm, Stomach ([4]; 24 hrs): 0.19 ± 0.13 % ID/gm
Avg % ID/gm, Tumor ([4]; 24 hrs): 1.54±1.14 % ID/gm
